Laboratory results: article PMC5214336

How the values were obtained:
[1] = biological target: Bos1 model TA substrate labelled with 7-hydroxycoumaryl ethylglycine (Cm) (S. cerevisiae) (UniProt P25385); test: FRET or BRET; stopped-flow time course of TA transfer from Sgt2 to Get3^BDP without Get4/5
[2] = biological target: 2AG model TA substrate labelled with Cm (S. cerevisiae) (UniProt P25385); test: FRET or BRET; pulse-chase: 20-50 nM preformed purified Get3^BDP•TA^Cm chased with a 10-fold excess of unlabeled Get3; loss of FRET followed in time
[3] = biological target: 3AG model TA substrate labelled with Cm (S. cerevisiae) (UniProt P25385); test: as above
[4] = biological target: 4AG model TA substrate labelled with Cm (S. cerevisiae) (UniProt P25385); test: as above
[5] = biological target: 5AG model TA substrate labelled with Cm (S. cerevisiae) (UniProt P25385); test: as above
[6] = biological target: 6AG model TA substrate labelled with Cm (S. cerevisiae) (UniProt P25385); test: as above
[7] = biological target: Bos1 model TA substrate labelled with 7-hydroxycoumaryl ethylglycine (Cm) (S. cerevisiae) (UniProt P25385); test: as above
[8] = biological target: Bos1-FisC model TA substrate labelled with Cm (S. cerevisiae); test: as above
[9] = biological target: 2AG model TA substrate labelled with Cm (S. cerevisiae) (UniProt P25385); test: FRET or BRET; stopped-flow time courses of TA transfer with Get4/5: ~50 nM Sgt2•TA^Cm in 150 nM Sgt2 mixed 1:1 with 400 nM Get3^BDP, 400 nM Get4/5, 2 mM ATP; donor fluorescence at 445 nm; biphasic fit
[10] = biological target: 3AG model TA substrate labelled with Cm (S. cerevisiae) (UniProt P25385); test: as above
[11] = biological target: 4AG model TA substrate labelled with Cm (S. cerevisiae) (UniProt P25385); test: as above
[12] = biological target: 5AG model TA substrate labelled with Cm (S. cerevisiae) (UniProt P25385); test: as above
[13] = biological target: Bos1 model TA substrate labelled with 7-hydroxycoumaryl ethylglycine (Cm) (S. cerevisiae) (UniProt P25385); test: as above
[14] = biological target: Bos1-FisC model TA substrate labelled with Cm (S. cerevisiae); test: as above
[15] = biological target: 2AG model TA substrate labelled with Cm (S. cerevisiae) (UniProt P25385); test: FRET or BRET; equilibrium titration of TA transfer from Sgt2 to Get3: 20-50 nM purified Sgt2•TA^Cm, 150 nM Sgt2, 150 nM Get4/5, 2 mM ATP, varied Get3^BDP; GET buffer, 25°C; apparent K1/2 at 150 nM Sgt2
[16] = biological target: 3AG model TA substrate labelled with Cm (S. cerevisiae) (UniProt P25385); test: as above
[17] = biological target: 4AG model TA substrate labelled with Cm (S. cerevisiae) (UniProt P25385); test: as above
[18] = biological target: 5AG model TA substrate labelled with Cm (S. cerevisiae) (UniProt P25385); test: as above
[19] = biological target: Bos1 model TA substrate labelled with 7-hydroxycoumaryl ethylglycine (Cm) (S. cerevisiae) (UniProt P25385); test: as above
[20] = biological target: Bos1-FisC model TA substrate labelled with Cm (S. cerevisiae); test: as above

B1: BODIPY-FL-labeled ybbR-Get3 (enzyme)
chain: MDLTVEPNLHSLITSTTHKWIFVGGKGGVGKTTSSCSIAIQMALSQPNKQFLLISTDPAHNLSDAFGEKFGKDARKVTGMNNLSCMEIDPSAALKDMNDMAVSRANNNGSDGQGDDLGSLLQGGALADLTGSIPGIDEALSFMEVMKHIKRQEQGEGETFDTVIFDTAPTGHTLRFLQLPNTLSKLLEKFGEITNKLGPMLNSFMGAGNVDISGKLNELKANVETIRQQFTDPDLTTFVCVCISEFLSLYETERLIQELISYDMDVNSIIVNQLLFAENDQEHNCKRCQARWKMQKKYLDQIDELYEDFHVVKMPLCAGEIRGLNNLTKFSQFLNKEYNPITDGKVIYELEDKE
modifications: CoA-BODIPY-FL enzymatically conjugated to the ybbR tag by the Sfp phosphopantetheinyl transferase
k fast of TA transfer from Sgt2 to Get3 (fast phase) [1]: 0.0094 s⁻¹ | k slow of TA transfer from Sgt2 to Get3 (slow phase) [1]: 0.003 s⁻¹ | t1/2 of TA transfer from Sgt2 to Get3 [1]: 98 s | koff [2]: 0.000383 s⁻¹ | koff [3]: 0.000433 s⁻¹ | koff [4]: 0.000283 s⁻¹ | koff [5]: 0.000567 s⁻¹ | koff [6]: 0.00333 s⁻¹ | koff [7]: 0.0003 s⁻¹ | koff [8]: 0.000483 s⁻¹ | k fast of TA transfer from Sgt2 to Get3 (fast phase) [9]: 0.077 s⁻¹ | k slow of TA transfer from Sgt2 to Get3 (slow phase) [9]: 0.007 s⁻¹ | t1/2 of TA transfer from Sgt2 to Get3 [9]: 13.5 s | k fast of TA transfer from Sgt2 to Get3 (fast phase) [10]: 0.164 s⁻¹ | k slow of TA transfer from Sgt2 to Get3 (slow phase) [10]: 0.017 s⁻¹ | t1/2 of TA transfer from Sgt2 to Get3 [10]: 4.8 s | k fast of TA transfer from Sgt2 to Get3 (fast phase) [11]: 0.183 s⁻¹ | k slow of TA transfer from Sgt2 to Get3 (slow phase) [11]: 0.033 s⁻¹ | t1/2 of TA transfer from Sgt2 to Get3 [11]: 6.3 s | k fast of TA transfer from Sgt2 to Get3 (fast phase) [12]: 0.151 s⁻¹ | k slow of TA transfer from Sgt2 to Get3 (slow phase) [12]: 0.023 s⁻¹ | t1/2 of TA transfer from Sgt2 to Get3 [12]: 11.8 s | k fast of TA transfer from Sgt2 to Get3 (fast phase) [13]: 0.047 s⁻¹ | k slow of TA transfer from Sgt2 to Get3 (slow phase) [13]: 0.011 s⁻¹ | t1/2 of TA transfer from Sgt2 to Get3 [13]: 17.7 s | k fast of TA transfer from Sgt2 to Get3 (fast phase) [14]: 0.063 s⁻¹ | k slow of TA transfer from Sgt2 to Get3 (slow phase) [14]: 0.009 s⁻¹ | t1/2 of TA transfer from Sgt2 to Get3 [14]: 12.3 s | K1/2 (Get3 for 50% TA transfer from Sgt2, at 150 nM Sgt2) [15]: 6.4 nM | K1/2 (Get3 for 50% TA transfer from Sgt2, at 150 nM Sgt2) [16]: 3.7 nM | K1/2 (Get3 for 50% TA transfer from Sgt2, at 150 nM Sgt2) [17]: 5.7 nM | K1/2 (Get3 for 50% TA transfer from Sgt2, at 150 nM Sgt2) [18]: 10 nM | K1/2 (Get3 for 50% TA transfer from Sgt2, at 150 nM Sgt2) [19]: 5.2 nM | K1/2 (Get3 for 50% TA transfer from Sgt2, at 150 nM Sgt2) [20]: 9.2 nM
